Results published in publication PMC10143413, “Proteomic Profiling of Mouse Brain Pyruvate Kinase Binding Proteins: A Hint for Moonlighting Functions of PKM1?” (International Journal of Molecular Sciences, 2023).

Target: T1, Pyruvate kinase PKM1, purified from rabbit skeletal muscle (rabbit, UniProt P11974-1 1-531)
T1 construct: Pyruvate kinase PKM, isoform M1, rabbit skeletal muscle; called full-length PKM1; amine-coupled to a CM5 chip or used as analyte in SPR; also called full-length PKM1; PK1; source: isolated from skeletal muscles of adult rabbits, electrophoretically homogeneous
Assay: SPR; Biacore T200, 25 °C; GAPDH, LDH or aldolase A amine-coupled to a CM5 chip, PKM1 as analyte in 0.05 M potassium phosphate buffer pH 7.4, 10 µL/min for 5 min; global fit to the 1:1 binding model
Conditions: both partners purified

T1 sequence (P11974 whole entry, canonical isoform): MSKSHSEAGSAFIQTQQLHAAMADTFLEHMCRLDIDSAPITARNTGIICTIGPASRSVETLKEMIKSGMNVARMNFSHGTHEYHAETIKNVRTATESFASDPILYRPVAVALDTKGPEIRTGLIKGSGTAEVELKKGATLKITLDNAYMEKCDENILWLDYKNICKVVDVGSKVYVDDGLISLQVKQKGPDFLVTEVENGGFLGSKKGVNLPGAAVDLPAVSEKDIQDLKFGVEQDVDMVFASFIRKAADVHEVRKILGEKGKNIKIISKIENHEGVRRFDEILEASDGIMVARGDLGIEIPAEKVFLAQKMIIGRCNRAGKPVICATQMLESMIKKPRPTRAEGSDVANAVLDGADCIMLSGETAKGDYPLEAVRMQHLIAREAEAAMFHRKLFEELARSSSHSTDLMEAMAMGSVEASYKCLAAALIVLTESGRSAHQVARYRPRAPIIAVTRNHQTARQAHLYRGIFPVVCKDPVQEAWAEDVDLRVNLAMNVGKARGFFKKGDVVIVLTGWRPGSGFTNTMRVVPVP

B1: Glyceraldehyde 3-phosphate dehydrogenase, purified from rabbit skeletal muscle (enzyme)
chain: not shown
notes: Glyceraldehyde-3-phosphate dehydrogenase, rabbit skeletal muscle; also called GAPDH; GAPD; source: isolated from skeletal muscles of adult rabbits, electrophoretically homogeneous
Binder B1 has a Kd of 1060 nM, a koff of 0.00162 s⁻¹ and a kon of 1530 M⁻¹ s⁻¹.
